According to patent publication US11433139B2, “Peptide vaccines against interleukin-31” (Zoetis Services LLC, priority 2018, dated 2022):

T1: canine IL-31 (Canis lupus familiaris, UniProt A0A8I3S3D1)
T1 construct: made in house; host or cells: CHO cells (CHROMOS ACE system)
T1 sequence (A0A8I3S3D1 24-159): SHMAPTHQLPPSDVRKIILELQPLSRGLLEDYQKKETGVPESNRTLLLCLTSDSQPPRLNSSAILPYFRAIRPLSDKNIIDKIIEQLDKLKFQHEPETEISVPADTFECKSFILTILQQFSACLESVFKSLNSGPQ


Key:
[1] = Stability of cIL-31 following dialysis into PBS; format: physicochemical
Source text: The Interleukin 31 protein varies in amino acid sequence conservation among homologous species (FIGS. 1A and 1B) but is believed to have common structural architecture with other members of the type I cytokine family (Boulay et al. 2003, Immunity. August; 19(2):159-632003; Dillon et al. 2004 Nat Immunol. July; 5(7):752-60). This up-down bundle topology is significant to the mode of receptor recognition shared by these cytokines (Dillon et al. supra, Cornelissen et al. 2012 Eur J Cell Biol. June-July; 91(6-7):552-66). With variation in IL-31 protein sequence identities between different species, it is not possible to predict if antibodies raised against one species will cross-react with others given different epitope propensities and local amino acid compositions. As a consequence, multiple forms of IL-31 protein were considered for this work representing multiple species and expression systems. The canine IL-31 protein (cIL-31) was produced to use as an immunogen and a reagent to test affinity and potency of antibody hits. […] Protein concentration was determined using a bicinchoninic assay (BCA assay) with Bovine Serum Albumin (BSA) as a standard (ThermoFisher Scientific, Inc., Rockford, Ill.). […]

[2] = Pharmacokinetic profile of canine IL-31 in dogs; format: in vivo, dog; conditions: subcutaneous dose of 1.75 μg/kg, within the first hour
Procedure: A recent study was performed to determine serum IL-31 levels in cats with a presumptive diagnosis of allergic dermatitis (AD) from several different geographic regions in the USA. […] To understand the levels of canine IL-31 in a previous model development study, the pharmacokinetic profile of canine IL-31 was analyzed in dogs following administration of a subcutaneous dose of 1.75 μg/kg. […] Based on these findings it is reasonable to believe that an intravenous dose of 0.5 μg/kg feline IL-31 used in this feline model will result in a circulating amount that is far excessive to that observed in the naturally occurring disease state for dogs and cats.

[3] = tested on: feline IL-31; test: Inhibition of feline IL-31 induced pSTAT3 signaling in feline FCWF4 macrophage-like cells; format: cell-based; conditions: 0.2 μg/mL feline IL-31, pSTAT3, FCWF4 cells (FIG. 3)
Outline: (§1)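 DH-82 cells primed with canine IFN-γ 10 ng/mL for 24 h, FCWF4 with feline IFN-γ 125 ng/mL for 96 h, then serum-starved 2 h. mAb pre-incubated 1 h with 1 μg/mL canine or 0.2 μg/mL feline IL-31, cells stimulated 5 min; pSTAT3 by AlphaLISA SureFire, IC50 as half-maximal signalling reduction.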

[4] = target: feline IL-31; test: Affinity of anti-IL-31 antibodies by surface plasmon resonance (Biacore), feline IL-31 surface; format: binding; conditions: IL-31 conjugated to the surface (FIG. 2)
Outline: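 IL-31 amine-coupled (NHS/EDC) at 5 μg/mL directly onto the SPR chip, quenched with ethanolamine; candidate mAbs flowed over as analyte. KD from 1:1 model fits; values below 1×10^−11 M are under the instrument's lower quantitation limit.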
Target sequence in this assay (as listed by the source): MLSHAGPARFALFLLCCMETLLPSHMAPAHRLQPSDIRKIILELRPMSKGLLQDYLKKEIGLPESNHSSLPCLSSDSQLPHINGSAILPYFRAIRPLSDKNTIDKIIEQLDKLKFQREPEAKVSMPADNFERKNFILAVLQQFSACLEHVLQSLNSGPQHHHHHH

[5] = tested on: feline IL-31; test: Inhibition of feline IL-31 induced pSTAT3 signaling in canine DH-82 cells; format: cell-based; conditions: feline IL-31, pSTAT3, canine DH82 cells (FIG. 3)
Outline: as §1
Target sequence in this assay (as listed by the source): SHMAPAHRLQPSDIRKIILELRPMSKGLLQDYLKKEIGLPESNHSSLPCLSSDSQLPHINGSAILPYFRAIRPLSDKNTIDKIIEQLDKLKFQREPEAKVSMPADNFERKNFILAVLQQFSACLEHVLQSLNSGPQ

[6] = target: T1, canine IL-31; test: Inhibition of canine IL-31 induced pSTAT3 signaling in canine DH-82 and feline FCWF4 cells; format: cell-based; conditions: canine IL-31; canine and feline cell types, cell type of the values not specified
Procedure: To identify candidates with inhibitory activity, antibodies were assessed for their ability to affect IL-31-mediated STAT3 phosphorylation in either a canine or feline cell-based assay. STAT3 phosphorylation was determined in canine DH-82 (ATCC® CRL-10389™) or feline FCWF4 macrophage-like cells (ATCC CRL-2787). DH82 and FCWF4 cells were primed with canine interferon gamma (R&D Systems, Minneapolis, Minn.) at 10 ng/mL for 24 hours or feline interferon gamma (R&D Systems, Minneapolis, Minn.) at 125 ng/mL for 96 hours, respectively, to increase receptor expression. Both cell types were serum starved for 2 hours prior to IL-31 and mAb treatment. Using two independent methods, all candidate mAbs were evaluated for their ability to inhibit either 1 μg/mL canine or 0.2 μg/mL feline IL-31 induced STAT3 phosphorylation. […] To ensure complex formation, a one hour co-incubation of mAb and IL-31 cytokine prior to cell stimulation was completed. IL-31 cell stimulation was carried out for five minutes. STAT3 phosphorylation was measured using AlphaLISA SureFire ULTRA™ technology (Perkin Elmer, Waltham, Mass.). In the case where antibody concentration and purity are unknown, hybridoma supernatants were qualitatively measured for their ability to inhibit STAT3 phosphorylation following a 1 hour co-incubation with […] IL-31. The potency of individual monoclonal antibodies defined by their ability to inhibit IL-31 mediated STAT3 phosphorylation in these assays was considered the key selection criteria for further advancement of select antibodies. The term potency refers to the IC50 value calculated from these assays and is the concentration of the antibody where signaling induced by IL-31 is reduced to one half its maximal value.

[7] = tested on: feline IL-31; test: Cat pruritus challenge model, subcutaneous antibody then IL-31 challenge; format: in vivo; conditions: cats, 4 mg/kg subcutaneously day 0; 0.5 μg/kg i.v. IL-31 challenge days 7, 21, 28
Procedure: The efficacy of the fully felinized anti feline IL-31 mAb ZTS-361 was assessed for its ability to neutralize pruritic behavior in an IL-31 induced in vivo cat model. […] As shown in this graph, the variance of pruritic behavior scored for both T01 and T02 groups prior to IL-31 challenge varied little with the number of pruritic events observed between 0 and 10 within the 30 minute observation period. This study differed from the preliminary feline challenge model described above in section 1.13 in that on day zero cats were dosed with 4 mg/kg ZTS-361 subcutaneously without combination with feline IL-31 to generate a pre-bound complex. This represents a more rigorous assessment of efficacy as antibody ZTS-361 will be in circulation for seven days prior to the first IL-31 challenge requiring the antibody to have sufficient exposure to bind and neutralize circulating IL-31.
For this study, pruritic behavior was assessed on days 7, 21, and 28 for 1 hour following a 0.5 μg/kg intravenous challenge of the IL-31 protein.
Target sequence in this assay (as listed by the source): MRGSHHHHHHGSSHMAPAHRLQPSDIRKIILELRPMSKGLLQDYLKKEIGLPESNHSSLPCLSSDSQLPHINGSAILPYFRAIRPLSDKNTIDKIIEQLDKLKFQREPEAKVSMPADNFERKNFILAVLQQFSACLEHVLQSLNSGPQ

| Molecule | stability, proteolysis ([1]; PBS, several days at 4° C.) | stability, precipitation ([1]; following dialysis into PBS) | peak plasma levels, maximum [2] | potency (IC50) against feline IL-31 in feline FCWF4 cells [3] | affinity (KD) to feline IL-31 [4] | potency (IC50) against feline IL-31 in canine DH82 cells [5] | IC50 against canine IL-31 [6] | reduction in pruritus compared to vehicle placebo control [7] |
| --- | --- | --- | --- | --- | --- | --- | --- | --- |
| canine IL-31: recombinant canine IL-31 protein (SEQ ID NO: 155) produced in CHO cells (protein, listed as Canis familiaris) MLSHTGPSRFALFLLCSMETLLSSHMAPTHQLPPSDVRKIILELQPLSRGLLEDYQKKETGVPESNRTLLLCLTSDSQPPRLNSSAILPYFRAIRPLSDKNIIDKIIEQLDKLKFQHEPETEISVPADTFECKSFILTILQQFSACLESVFKSLNSGPQ | no proteolysis was observed | No precipitation was observed | about 30 ng/ml | – | – | – | – | – |
| ZTS-361: felinized anti IL-31 15H05 mAb, FEL_15H05_VH1 with Feline_HC_AlleleA_1, FEL-15H05-VL1_FW2 light chain (antibody, V domains shown, feline constant regions joined; Felinized variable heavy mAb sequence, from Mus musculus and Felis catus; Felinized variable light mAb sequence, from Mus musculus and Felis catus) VH: QVLLVQSGAEVRTPGASVKIFCKASGYSFTSYTIHWLRQAPAQGLEWMGNINPTSGYTENNQRFKDRLTLTADTSTNTAYMELSSLRSADTAMYYCARWGFKYDGEWSFDVWGAGTTVTVSS VL: EIQMTQSPSSLSASPGDRVTITCRASQGISIWLSWYQQKPGNIPKVLINKASNLHIGVPSRFSGSGSGTDFTLTISSLEPEDAATYYCLQSQTYPLTFGGGTKLEIK | – | – | – | highly consistent with values derived from the chimeric and mouse form | highly consistent with that of the mouse and chimeric form | highly consistent with values derived from the chimeric and mouse form | proportionally higher | significant reduction in pruritus |
